Assay results as given in PMC3664666 (Science signaling, 2012).

Target: T1, phosphorylated Mt-MviN KHD 681-963 (M. tuberculosis, UniProt P9WJK2 681-963, phosphothreonine at 947)
T1 sequence: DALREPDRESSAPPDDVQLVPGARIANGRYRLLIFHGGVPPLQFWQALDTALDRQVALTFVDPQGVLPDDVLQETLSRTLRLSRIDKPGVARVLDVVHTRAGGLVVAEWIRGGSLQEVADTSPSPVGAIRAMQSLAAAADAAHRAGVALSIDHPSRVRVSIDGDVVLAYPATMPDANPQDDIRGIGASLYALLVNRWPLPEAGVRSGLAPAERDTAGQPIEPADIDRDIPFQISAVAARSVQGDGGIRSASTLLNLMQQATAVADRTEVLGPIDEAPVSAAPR
Test: ITC

B1: FhaA FHA domain (residues 390 to 525) (domain or fragment)
chain: PQGGGYAEPAGRDYDYGQSGAPDYGQPAPGGYSGYGQGGYGSAGTSVTLQLDDGSGRTYQLREGSNIIGRGQDAQFRLPDTGVSRRHLEIRWDGQVALLADLNSTNGTTVNNAPVQEWQLADGDVIRLGHSEIIVR
  Kd: 58 ± 2 nM
